# In patent publication US7288523B2, “Peptide binding the KLVFF-sequence of amyloid-β” (Neurochem (International) Limited, priority 1995, dated 2007):
# Columns and labels:
# [1] = Aggregation and fibril formation of Aβ-1-28 peptides (RPLC of supernatant, electron microscopy of pellet); assay type: physicochemical; conditions: 200 μM, 24 h, 37° C., TBS
# Method: Aβ-1-28 (FIG. 3A) and AP-1-28^AAVFA (FIG. 3B) were incubated at 200 μM in TBS for 24 h at 37° C. in a shaking water bath. After incubation, the tubes were centrifuged at 20,000 g for 20 min and the content of non-aggregated peptide in the supernatants (FIG. 3A, B) was analyzed using an established C4 RPLC system (12) whereas the aggregated peptides in the pellets were analyzed by electron microscopy after adsorption to formvar-coated grids and negative staining with 2% uranyl acetate in water.
# [2] = literature; cited from earlier work
# amyloid fibril formation = amyloid fibril formation (Homo sapiens, UniProt P05067); conditions: literature; cited from earlier work
# [3] = WO 95/08999; cited from earlier work
# Aβ (Aβ-16-20) = biological target: T1, Aβ (Aβ-16-20) (Homo sapiens, UniProt P05067); experiment: Binding to Aβ (Example 5)
# T1 construct: It is a 40 to 42 amino acids long proteolytic fragment of the Alzheimer amyloid precursor protein (APP)
# Excerpt: (§1) By screening combinatorial pentapeptide libraries exclusively composed of D-amino acids (lowercase) with labelled KLVFF, several ligands with a motif containing phenylalanine (f) in the second and leucine (l) in the third position were identified (e.g. lflrr). By using a short peptide in the screening, known to bind to a region in Aβ critical for its polymerization (i.e. KLVFF), the risk of identifying D-pentapeptides that interact with nonrelevant regions in Aβ (N- or C-terminal to Aβ-16-20) was eliminated. […] Since peptides built up of D-amino acids are resistant to proteolytic degradation, these ligands may be beneficial for inhibition of amyloidogenesis in vivo.
# Aβ-1-40 [4] = biological target: T2, Aβ-1-40 (Homo sapiens, UniProt P05067); experiment: Surface plasmon resonance spectroscopy (BIAcore 2000), Aβ-1-40 over immobilized peptide; assay type: binding; conditions: chip derivatized with KLVFF-βA-βA-C; three Aβ-1-40 concentrations, pH 7.4
# T2 construct: Incubation of synthetic Aβ-1-40 at 100 μM for 48 h; host or cells: synthetic peptide (chemical synthesis)
# Method: c) Sensorgram from BIAcore 2000. Aβ-1-40, at three different concentrations in running buffer, pH 7.4. Aβ-1-40 was injected during 10 minutes over a sensor-chip derivatized with the peptide KLVFF-βA-βA-C.
# c) The interaction between soluble Aβ-1-40 and immobilized KLVFF was monitored in real-time (FIG. 2D) using surface plasmon resonance spectroscopy (BIAcore, Pharmacia) (BIAcore 2000 (Pharmacia Biosensor AB, Sweden) was used for real-time studies based on surface plasmon resonance spectroscopy. The peptide was immobilized using thiol coupling. The running buffer consisted of 10 mM HEPES, 0.15 M NaCl, 3.4 mM EDTA and 0.05% surfactant P20 as described. [U. Jansson, M. Malmqvist, Adv. Biosens. 2, 291-336 (1992)]).
# d) AA served as linker between the active peptide and the chip (upper trace) and cysteine alone, indicating non-specific binding, (C) as control (lower trace). Arrows indicate start and stop of injection (FIG. 2D).
# ^125I-labelled Aβ-1-40 = biological target: T3, ^125I-labelled Aβ-1-40 (Homo sapiens, UniProt P05067); experiment: SPOT filter-bound peptides incubated with radioactive Aβ-1-40, autoradiography and densitometry; assay type: binding; conditions: 20 μM ^125I-labelled Aβ-1-40, 20° C., 12 h, TBS pH 7.3; semiquantitative
# T3 construct: incubated in the presence of 20 μM ^125I-labelled Aβ-1-40; host or cells: synthetic peptide (chemical synthesis)
# Excerpt: a) Ten-mers corresponding to consecutive sequences of Aβ-1-40 were synthesized on a filter matrix using the SPOT-technique (the peptides were synthesized essentially as described by Frank [R. Frank, Tetrahedron 42, 9217-9232 (1992)]. Briefly, a spacer corresponding to 2 molecules of β-alanine was coupled to cellulose membranes (Whatman lChr). The peptides were synthesized on these derivatized membranes using Fmoc protected and pentafluorophenyl-activated amino acids (AMS Biotechnology) dissolved in N-methylpyrrolidone. Coupling efficiency was monitored using bromphenol blue.). We synthesized the thirty-one possible 10-mers of the Aβ-1-40. Peptide no. 1 corresponds to amino acids 1-10, peptide no. 2 to amino acids 2-11 etc. The filter-bound peptides were incubated with radioactive Aβ-1-40. Following washing of the filter in high-salt buffer, bound radioactivity was estimated by autoradiography and densitometry. […] Radioactivity bound to the filter was visualized by autoradiography and quantitated using a densitometer.
# b) Peptide no. 11 ([…]) and indicated N- and C-terminal truncated fragments were synthesized using the same technique as described above and analyzed for affinity to ^125I-labelled Aβ-1-40.
# d) Each amino acid residue in KLVFF was systematically replaced with A and analyzed for affinity to ^125I-labelled Aβ-1-40. […]
# Aβ = biological target: T4, Aβ (Homo sapiens, UniProt P05067); experiment: Inhibition of amyloid fibril formation (Example 5); assay type: biochemical
# T4 construct: It is a 40 to 42 amino acids long proteolytic fragment of the Alzheimer amyloid precursor protein (APP)
# labelled KLVFF = biological target: T5, labelled KLVFF (Homo sapiens, UniProt P05067); experiment: Screening of combinatorial D-amino acid pentapeptide libraries with labelled KLVFF; assay type: binding
# T5 construct: with labelled KLVFF
# Excerpt: as §1
# Aβ-1-40 [5] = biological target: T2, Aβ-1-40; experiment: Aβ-1-40 polymerization alone or coincubated with peptide, electron microscopy; assay type: biochemical
# Method: Aβ-1-40 was incubated at 100 μM in TBS for 48 h at 37° C. in a shaking water bath, either alone or together with 100 μM AcKLVFFNH2. The polymerized material was adsorbed to formvar-coated grids and negatively stained with 2% uranyl acetate in water.
compound,measurement,setting,value
Aβ-1-28^AAVFA: mutated Aβ-1-28 where the KLVFF sequence was substituted with AAVFA,aggregation (non-aggregated peptide in supernatant),[1],almost completely failed to aggregate
same,fibril formation (electron microscopy),[1],only formed a few dispersed fibrils
same,fibril formation (electron microscopy),[1]; listed as alanine-substituted Aβ-1-28,does not form fibrils
Aβ-1-28: a well-studied Aβ fragment that readily forms amyloid fibrils [reference compound],aggregation (non-aggregated peptide in supernatant),[1],aggregated
same,fibril formation (electron microscopy),[1],formed large fibril bundles
same,formation of amyloid fibrils,[2],readily forms amyloid fibrils
"p3: fragment of Aβ termed p3 and corresponding to Aβ-17-40 or Aβ-17-42 (LVFFAEDVGSNKGAIIGLMVGGVV; P3(40); UniProt P05067 688-711, looked up)",formation of amyloid fibrils,[2],not capable of forming amyloid in vitro or in vivo
Nc1c(/N=N/c2ccc(-c3ccc(/N=N/c4cc(S(=O)(=O)O)c5ccccc5c4N)cc3)cc2)cc(S(=O)(=O)O)c2ccccc12 [Congo red],inhibition of amyloid fibril formation,amyloid fibril formation,may have such properties
Lys-Leu-Val-Phe-Phe [KLVFF],amnestic or memory enhancing effect,[3],neither significantly amnestic nor memory enhancing
same,binding to Aβ,Aβ (Aβ-16-20),binds stereo specifically
same,binding of soluble Aβ-1-40 to immobilized peptide (sensorgram),Aβ-1-40 [4],not saturable
same,binding of radioactive Aβ-1-40 to filter-bound peptide,^125I-labelled Aβ-1-40,high Aβ binding capacity
same,inhibition of amyloid fibril formation,Aβ,inhibit amyloid fibril formation
lflrr,identified as ligand of labelled KLVFF,labelled KLVFF,identified
AcQKLVFFNH2,Aβ-1-40 amyloid fibril formation on coincubation with peptide,"Aβ-1-40 [5]; 100 μM Aβ-1-40 with equimolar peptide, 48 h, 37° C.",this type of fibrils did not form
same,aggregates formed by the peptide itself,"Aβ-1-40 [5]; peptide alone, electron microscopy",small rod-like aggregates
